# Measurements published in the supplement of paper PMC12636428.
# System: Saccharomyces cerevisiae
# Experiment: transcriptional activation domain activity (GFP:mCherry ratio, weighted mean of sorted bins, harmonized to initial dataset scale) (arbitrary fluorescence ratio units); higher = stronger transcriptional activation
# Details: beta-estradiol 1 µM; induction time 4 h
# How it was run: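 Protein tiles carrying barcodes and fused to an estradiol-inducible synthetic transcription factor were placed at the URA3 locus of yeast diploids with a GFP reporter. Following 4 hours at 30 °C in SC with 1 uM beta-estradiol, cells were sorted into 8 GFP:mCherry bins, barcodes were sequenced, and tiles with fewer than 50 reads were discarded. Activation activity is given as the read-weighted mean of bin median fluorescence, averaged across barcodes and linearly mapped to the initial dataset scale.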
row,Sequence,transcriptional activation domain activity
1,MEWVRLLSKEVLLFYSIFFFSFVSFTVLTLFPLHESSILSRLLIFIYPLRHLV,44700
2,MEWVRTARGRVPPGRRPVEGGYESSGARLYHALAVVDGVRVPGKTGEHLGGCN,32000
3,MEYLIGHMEIYSVHFLHFCFFLRFLIFFFPLFFFFSYFSFHSYIYTFFFLEII,31800
4,MFACPYLGLLCLSVTSMPYPFSQLFQPFISPRFCPECAPFSFFLHSFLGFHLT,52200
5,MFAHFFFLRACCCPLPFFFCGYVFLIFSSPFSCFCFLCFWFCCFFFSVCFLLF,58700
6,MFAKILVLSWFDSIRWGLFLLLCVMGVFLLFDIPFFLFPTCFLCLVFPFLLAK,20400
7,MFAKILVLSWFDSIRWGLFLLLCVMGVFLLFDIPFSFSLLVFSAWYFLFFSRR,33800
8,MFALLEILCLICILLLTKPRCLCFSIRLEILIFFSFFFFFFCIFLVGYTLSTL,80600
9,MFCFFEFLFFYKEDLAAYALCSCSQLPASFFLFLFPSPLWLFFFFFIFCLTFM,38900
10,MFCLRFFVPLLLLPAPSAPPLLILTLLISMWFLHRPCIYCSLLIVGFLISSCS,55900
11,MFCLRSWIPILFFLLRTNASPIYLILFISATYFLNRPCVYCSLLLFILVVALF,50800
12,MFCLRSWIPILFFLLRTNASPVYLILFLSATYFLNRPCVYCSFLLLILVIALF,59500
13,MFCLRSWIPILFFLSVSNASPIYLILFVVTTYLLNRPCVYCSLLLGVLVLALF,38500
14,MFCLRSWIPILFFLTNASPIYLLLFISATYTLNRPCVYCSLLLGILVLALFDF,28600
15,MFCLRSWIPLLFIPANASPGFIFLFFVCTYFLNRPCVYCSILLLILFVTSCYW,41000
16,MFCLRSWIPVLFFLLRTHASPIYLVLFISATYFLNRPCVYCSLLLFILVVALF,61100
17,MFCLRSWIPVLFFLLRTHASPVYLVLFISATYFLNRPCVYCSLLLFILVVALF,84400
18,MFCLRSWIPVLFFLLRTNASPVYLILSISATYFLNRPCVYCSLLLFILVVALF,57600
19,MFCLRSWIPVLFFLLRTNASPVYLVLFLSATYFLNRPCVYCSLLLFILVVALF,46500
20,MFCLRSWLPLLFIPTNAPPIFIFIFFFLNFFLSRPCVYCSFLLLILCLTSCYW,36600
21,MFCLRSWLPLLFIPTNAPPIFVFLFFVCTFFLSRPCVYCSFLLAILFLTSCYW,65100

row,Sequence,transcriptional activation domain activity
1,MFCLRSWLPLLFIPTNAPPVFVFLFFACTFFLSRPCVYCSFLLLILFFTSCYW,52700
2,MFCLRSWLPLLFIPTNASPAFIFLFFVCTYFLNRPCVYCSFLLLILFATSCYW,36100
3,MFCLRSWLPLLFIPTNASPAFILLFFIGTYFLNRPCVYCSLLLLILFCTSCVW,40200
4,MFCLRSWLPLLFIPTNASPIFIFLFFICTYFLNRPCVYCSFLLLILFASSCHW,48400
5,MFCLRSWLPLLFIPTNASPIFIFLFFVSTYFLNRPCVYCSFLLLILFASSCHW,52500
6,MFCLRSWLPLLFIPTNASPVFIFLFFVCTYFLNRPCVYCSFLLLILFMTSCNW,62500
7,MFCLRSWLPLLFIPTNASPVFILLFFIGTYFLNRPCVYCSLLLLILFSTSCVW,39400
8,MFCLRSWLPLLFIPTSASPVFIFLFFVCTYFLNRPCVYCSFLLLILFLTSCNW,30800
9,MFCPDVCLVLSIGDVLLAMSYWRCLRETASLFHYHLVPPFELLPLYSVRITAA,58800
10,MFCWLCYFLPFISFGFPLIYPSSVGILLWIVISGLCVFIFTLKMFLVFLLLFF,46100
11,MFDYLVFTLCPCIFFILFLLILLVLLHKALVVFFFYHYSILVLVVPYYCLFVF,86400
12,MFENFSLLLSSLCFFPLSLFFCFFFLFPLSSFFFFVFLLAFCFCCFRFSLFFF,18100
13,MFESVNLDENSPEDRELAKVLSPPGSYLSPASLDSGSSFTNSGTSTSCFEPKN,32400
14,MFFCSFFRWGFIFFFSFLFFSFILLCWCFLVFLNFATDPACNLPFSFLVFIPR,57600
15,MFFCYLTVILSMDAFYYYQSHLNWTSTQLYVTWFNACFRNGLIRIIYFVFWWL,76300
16,MFFFLLLFIIVMYGCLVCEVIHTSFVGLIMVSTLMLNAFSCFMSFTYFLFFLF,59000
17,MFFFLSAFLLPFLFFLVGHSAPSFLYLVFLSFLFYYLLHFYFFLFFTYFCGSC,59300
18,MFFIFFFWFVFFPLTIFLLSSSIFGFLFSSSFLFYYYYFFLWGGRPFIFPFYS,33300
19,MFFIIILFLVIYSGKISSNFLSFLYRLLLFMLISAQLSVLHCYCLYIFHRCYC,30900
20,MFFILASFSYYYYTHHISLDKVGNFLCRFIHPVFLCSIFIFPFLLYLFKIIYY,39100
21,MFFKMMTTQDIQFVNVCFKLHSTLPMLFIGGIFLIIHCTSSSAIKGRICTAAF,34100

row,Sequence,transcriptional activation domain activity
1,MFFLFFLLVSWWLCYLLLMASSFLIVGGMYLLALCPPLGCIGDLVVPFYFLFL,81700
2,MFFLFPFLTFGYPAFNLKLCLLIQSNSYCHSFSSLSLYALLLLYLRLLLILLI,71100
3,MFFLLVLAAVISGYKAVLKHFLVVISLFLHMIYLVPPLCLWKPILVASILSSP,44700
4,MFFLPFGIFFFFACFFSLFTFADSWLAVFLPDRFLLSFVLFNFAFFFFFFTTL,31900
5,MFFLSSFSALLAFSPPPSLLLLLLLLLTFPLSGFLALFLPRFSISLLTLSFFY,50700
6,MFFLSSIFLTLSMTLSPLFLYFNWLVVYGFSSLFFIFSTPTFLPPLCFFQWYC,45200
7,MFFPLVLSKMLICVSFLPVTLLISYLSFFFLFFTGLGLGATAFFFFTFLLYFS,42100
8,MFFRRFLMYFVELTGIMYCLIVFFMVSLFLLYRRNMIEEQFPNKTIILYGKRV,58500
9,MFGFIVVLLFSLPFFFTSSTTLSSFYFSFTFLVHFFLSYSLNVFLSFFVWFFF,58100
10,MFGFSLFFLFCFSVIVGFILFTLFFDYSPLSISLSCSVYCIMLCLSLFFLVFF,34200
11,MFGICTYSIPFLYFPPIPFVSYVSTLYFFVSHSISFHYLYIYCSIHLPFFLFI,69000
12,MFGIGFFSRVLPWLWLWLWLYFFFFFFLYIFCMHYEQFSLSLTYNKLPFSLAL,65900
13,MFGKRFIYCLSIIDYGISPHEGITGFILCVCVVYFLECGFCYCWHSRRTSMSW,64400
14,MFGRPYCFGFVVYLFVGCFAVLSVVCSFFFFPLLPLLVVVILLKVVFSFVRAD,29100
15,MFGYDSSRSSCSFLLPRESSIRLMVYFLYLLRVFYLLFFVFHLFLLPSSLFFF,41200
16,MFHSIYLVVPSFHPSHALIVSFLFSLLRITLHLLLHFLVLYLLLCILFFWHPE,43100
17,MFIFFKILILILLINIISITSFRLGAMLHYCIGHWDCMGNYLDCVFRLGFLFI,59000
18,MFIFFLILLFYYYFYSTILFITYTLFSITQLSIFTLIPFLYYIIHYVTLLICS,41100
19,MFIFLFFIHLLSHLCFILILILLFSILLFYVPVICLSTFFILFYHHHLLCTHQ,32200
20,MFISICICSPYFQGCLAHTFYLFFYWGYLDCSLPPLVLQQRLLLWLLFDSFFI,46000
21,MFIVCLFLFMILHYSFMFYIFGSNYLLLLLLVLLSWWFFLLYFPTFIFLFGVL,48700

row,Sequence,transcriptional activation domain activity
1,MFIYVFRPCNCIHLFIICQFSLFLITLLLYLFDLFFQLPFLLCINLTFCVAMC,64900
2,MFKCRNRYCYGSCVDLLCYLILGLDFLWIFCFLFFKRFFFRFLLSIPFSFFPS,64600
3,MFKGSFFFSLTGFLFSLLFLFFYPLPCWGRDHFFCWGLECLFSLFLSWVLFTV,41100
4,MFKGTLLLVFFHYGWALFLDYCLWYIMISLCFWYRVCLPVLLLGFHVCCHLWC,48500
5,MFKSFLGHSDQNTFFFFVLLLLLLCCHISLRAFFIFLSWIQLLYVLQWDECDK,47800
6,MFKSVFCLFSVLSFLLFHACFIYHSFFSFLFLLMMKLLLWLCATFATKWLFFC,69500
7,MFLCCVCIEAQARILYLCCLYKLLTFYSFYYFYHSYFLLILNFFLLTILHALC,74000
8,MFLCFFHVFMLYLCHYVIVMLIYFLIYFMLFLLFMFLNTILQYEFLILHFCFI,47500
9,MFLCLQFRYLFCCGLKHWLRWGDALCLRVLMQGRCCWCGKRKFMLSVSILSWR,53600
10,MFLEGVLQFVFFFFFFFPVYLSTFIFKFLAVGFLGSYLFLLVQLMQLIHSLIL,31900
11,MFLFIYFVCVCVFSLSLLWDGVSGWVLFVLDWIGLIGGMCVWAYIIIFYEFLV,63200
12,MFLFLFLFVFLFVFLFLFLFLFLFLFLFLFMFPFLFPFLFPFPFPFPFPVLVL,52700
13,MFLFVFSLVCIFYYCCYLLLLLLSSWLYSQQFVLFWSLTVHISCCPSFFLNES,37400
14,MFLGFFFLFFYLFIMDHILDFWLLLRIIILIFAYSHCSFLRTLILFFRINFFF,69000
15,MFLKSELHFNEPLQHILISFIFLSCLSNLALMIFSVVYKVYILLALIMLVYAN,51900
16,MFLLAFCIQAEYQLKLLYMFFYFFCSYVSSLIVFVSYFGVLVVLAGLNCFFTY,50300
17,MFLLFRSPCLLVLYIFWVGQSGVGLRGVGVHHFFFFFFSLLAALLLFCLCGAI,29400
18,MFLLFSLCVDFKGVLGGWLLFFFLLAFDGFTRLLWGDVICFFFYLLLFATTHV,57600
19,MFLLLKYDFSLTDLLRILLRLNMFPILLSFIMDRPYTSYTLPWLISFWYLVFF,66500
20,MFLLVLYPILHLLFLPCKYQYFQIFIRLLSQLPLLFFFCNTFWFFSTSVFFLN,69600
